Reference: US12459996B2, “Methods for treating alcohol-induced brain injury and reducing alcohol addiction” (The Regents of the University of California, priority 2017, dated 2025)

Test system: cultured GFAP+F4/80- astrocytes
Assay: IL-1β stimulation of cultured astrocytes, gene expression microarray
Type: cell-based, mouse
Settings: 5 ng/ml, 24 h
Procedure: Whole mouse genome gene expression via Microarray: Primary astrocytes (5×10^5) were stimulated with IL-1β (5 ng/ml), TGF-β1(5 ng/ml) or vehicle for 24 h, harvested, and mRNA was purified using RNAeasy™ columns (Qiagen); and 160 ng of purified RNA per sample was labeled using the LRILAK PLUS™, 2-color, low RNA input Linear Amplification kit and hybridized to a Whole Mouse Genome Microarray 4×44 K™ 60mer slide according to the manufacturer's instructions (Agilent, Santa Clara, CA). Slides were scanned using the Agilent GZ505B Scanner™ and analyzed using the Gene Spring Software™ (Agilent).
To determine the effect of microglia-derived cytokines on astrogliosis 21,22, cultured GFAP^+F4/80-astrocytes were in vitro stimulated with TGF-β1 or IL-β. […] In addition, cultured astrocytes expressed glutamate receptors (mGluRs) that mediate neuron-astrocyte signaling (FIG. 14D). Under pathological conditions, neurodegeneration triggers expansion of reactive astrocytes, upregulation of TGF-β 1, and mGuRs, which together generate neuroprotective effects^24.
FIG. 14A: Primary GFAP^+F4/80^− astrocytes and GFAP^−F4/80^+ microglial cells were isolated from Wt mice, and phenotyped by immunocytochemistry. Cell purity was calculated as percent of total cells (representative images ×20 objective). […] The data are average of (triplicates). FIG. 14B-C: Cultured astrocytes (5×10^5 cells per ml) were stimulated with TGF-β1 (5 ng/ml), or IL-1β (5 ng/ml), or PBS, and subjected to the customized gene expression microarray (Agilent. FIG. 14B: GO enrichment profile for IL-1β- and FIG. 14C: TGF-β- (vs PBS-) stimulated astrocytes is shown.

Substance: IL-β1: IL-1β cytokine (5 ng/ml) used to stimulate cultured astrocytes
- CCL2, fold induction vs vehicle: 200 fold
- CCL5, fold induction vs vehicle: 13 fold
- CCL7, fold induction vs vehicle: 400 fold
- Cxcl1, fold induction vs vehicle: 14 fold
- IL-6, fold induction vs vehicle: 20 fold
